# According to the supplement of paper PMC9112550, “Optimization of the antimicrobial peptide Bac7 by deep mutational scanning” (BMC Biology, 2022):
# Test system: Escherichia coli TOP10
# Experiment: shrunken log2 fold change of peptide-encoding DNA abundance (4.5 h post-induction vs induction); higher = less antimicrobial activity (less host growth inhibition)
# Settings: time post-induction: 4.5 h; library: site-saturation at positions 5, 18, 19, 20
# 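Further: peptides expressed intracellularly from a pBAD plasmid library in pooled LB shake-flask culture, induced with 0.3% L-arabinose, DNA abundance read by NGS, three biological replicates, DESeq2 with apeglm shrinkage.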
row,Sequence,shrunken log2 fold change
1,RRIRVRPPRLPRPRPRPHQMPRP,-0.0715
2,RRIRYRPPRLPRPRPRPLVRPRP,-0.0244
3,RRIRDRPPRLPRPRPRPYKEPRP,-0.372
4,RRIRGRPPRLPRPRPRPYEQPRP,-0.157
5,RRIRHRPPRLPRPRPRPHKWPRP,-0.0897
6,RRIRPRPPRLPRPRPRPWSFPRP,-0.185
7,RRIRGRPPRLPRPRPRPCWDPRP,0.217
8,RRIRIRPPRLPRPRPRPHWDPRP,-0.248
9,RRIRARPPRLPRPRPRPDELPRP,0.63
10,RRIRDRPPRLPRPRPRPQDIPRP,-0.00598
11,RRIRDRPPRLPRPRPRPQMMPRP,-0.211
12,RRIRTRPPRLPRPRPRPRERPRP,0.112
13,RRIRKRPPRLPRPRPRPAEAPRP,0.959
14,RRIRDRPPRLPRPRPRPTGMPRP,-0.00655
15,RRIRKRPPRLPRPRPRPHYVPRP,-0.0482
16,RRIRIRPPRLPRPRPRPPCYPRP,-0.154
17,RRIRQRPPRLPRPRPRPHYVPRP,-0.123
18,RRIRGRPPRLPRPRPRPKTWPRP,0.155
19,RRIRSRPPRLPRPRPRPDHVPRP,-0.0207
20,RRIRWRPPRLPRPRPRPFMCPRP,-0.245
21,RRIRARPPRLPRPRPRPFVQPRP,-0.00645
22,RRIRARPPRLPRPRPRPHMKPRP,-0.188
23,RRIRKRPPRLPRPRPRPCGAPRP,0.45
24,RRIRWRPPRLPRPRPRPHINPRP,-0.491
25,RRIRNRPPRLPRPRPRPVTRPRP,-0.124

row,Sequence,shrunken log2 fold change
1,RRIRMRPPRLPRPRPRPEYFPRP,-0.109
2,RRIRTRPPRLPRPRPRPTAHPRP,0.0803
3,RRIRGRPPRLPRPRPRPFDFPRP,0.26
4,RRIRMRPPRLPRPRPRPMLQPRP,0.196
5,RRIRCRPPRLPRPRPRPTMRPRP,0.529
6,RRIRARPPRLPRPRPRPLYWPRP,-0.194
7,RRIRVRPPRLPRPRPRPEWWPRP,0.191
8,RRIRLRPPRLPRPRPRPNWKPRP,-0.225
9,RRIRPRPPRLPRPRPRPVVMPRP,-0.174
10,RRIRRRPPRLPRPRPRPEWSPRP,0.274
11,RRIRSRPPRLPRPRPRPNLVPRP,-0.0453
12,RRIRIRPPRLPRPRPRPKAYPRP,-0.124
13,RRIRYRPPRLPRPRPRPNLPPRP,-0.479
14,RRIRKRPPRLPRPRPRPMKRPRP,0.138
15,RRIRNRPPRLPRPRPRPCYWPRP,-0.345
16,RRIRHRPPRLPRPRPRPNVSPRP,-0.0959
17,RRIRPRPPRLPRPRPRPIRNPRP,-0.0919
18,RRIRYRPPRLPRPRPRPSWIPRP,-0.341
19,RRIRWRPPRLPRPRPRPYEFPRP,-0.00843
20,RRIRMRPPRLPRPRPRPCEVPRP,-0.181
21,RRIRDRPPRLPRPRPRPYQSPRP,-1.12
22,RRIRARPPRLPRPRPRPRWIPRP,0.239
23,RRIRTRPPRLPRPRPRPISQPRP,-0.0474
24,RRIRDRPPRLPRPRPRPQPYPRP,-0.651
25,RRIRTRPPRLPRPRPRPYLVPRP,-0.489

row,Sequence,shrunken log2 fold change
1,RRIRFRPPRLPRPRPRPQVWPRP,0.135
2,RRIRERPPRLPRPRPRPKPEPRP,0.12
3,RRIRHRPPRLPRPRPRPDFKPRP,-0.127
4,RRIRFRPPRLPRPRPRPIKQPRP,-0.0488
5,RRIRWRPPRLPRPRPRPWRYPRP,-0.262
6,RRIRNRPPRLPRPRPRPWCGPRP,-0.263
7,RRIRPRPPRLPRPRPRPEYYPRP,-0.335
8,RRIRKRPPRLPRPRPRPHCAPRP,-0.00229
9,RRIRERPPRLPRPRPRPSGVPRP,-0.157
10,RRIRYRPPRLPRPRPRPIAHPRP,-0.901
11,RRIRFRPPRLPRPRPRPLADPRP,-0.0773
12,RRIRRRPPRLPRPRPRPCKTPRP,-0.103
13,RRIRNRPPRLPRPRPRPIQYPRP,-0.377
14,RRIRMRPPRLPRPRPRPHREPRP,0.104
15,RRIRCRPPRLPRPRPRPEAGPRP,0.4
16,RRIRCRPPRLPRPRPRPLASPRP,0.139
17,RRIRLRPPRLPRPRPRPPPYPRP,0.388
18,RRIRGRPPRLPRPRPRPNSDPRP,-0.0204
19,RRIRVRPPRLPRPRPRPQMKPRP,-0.0794
20,RRIRKRPPRLPRPRPRPVKTPRP,0.141
21,RRIRVRPPRLPRPRPRPIMAPRP,-0.111
22,RRIRIRPPRLPRPRPRPSMNPRP,-0.717
23,RRIRLRPPRLPRPRPRPGWGPRP,0.335
24,RRIRTRPPRLPRPRPRPQEPPRP,-0.0583
25,RRIRTRPPRLPRPRPRPMRVPRP,-0.036

row,Sequence,shrunken log2 fold change
1,RRIRSRPPRLPRPRPRPGGFPRP,0.245
2,RRIRMRPPRLPRPRPRPHYVPRP,-0.0815
3,RRIRDRPPRLPRPRPRPTGKPRP,0.0507
4,RRIRDRPPRLPRPRPRPDTKPRP,0.0114
5,RRIRHRPPRLPRPRPRPFIEPRP,-0.276
6,RRIRARPPRLPRPRPRPTRDPRP,0.759
7,RRIRYRPPRLPRPRPRPYITPRP,-0.529
8,RRIRCRPPRLPRPRPRPNITPRP,-0.884
9,RRIRWRPPRLPRPRPRPYWVPRP,-0.294
10,RRIRLRPPRLPRPRPRPVNYPRP,-0.231
11,RRIRLRPPRLPRPRPRPIWRPRP,0.102
12,RRIRIRPPRLPRPRPRPYSNPRP,-0.385
13,RRIRTRPPRLPRPRPRPIQVPRP,-0.0152
14,RRIRPRPPRLPRPRPRPQWPPRP,-0.0484
15,RRIRQRPPRLPRPRPRPDSRPRP,-0.0119
16,RRIRTRPPRLPRPRPRPHEVPRP,-0.00804
17,RRIRMRPPRLPRPRPRPVGQPRP,-0.00911
18,RRIRFRPPRLPRPRPRPAKMPRP,0.207
19,RRIRWRPPRLPRPRPRPMIQPRP,-0.000914
20,RRIRKRPPRLPRPRPRPEFCPRP,0.771
21,RRIRKRPPRLPRPRPRPFSRPRP,0.238
22,RRIRERPPRLPRPRPRPECKPRP,-0.132
23,RRIRLRPPRLPRPRPRPVHQPRP,0.244
24,RRIRIRPPRLPRPRPRPKKKPRP,-0.442
25,RRIRERPPRLPRPRPRPLRLPRP,0.304

row,Sequence,shrunken log2 fold change
1,RRIRYRPPRLPRPRPRPHIMPRP,-0.955
2,RRIRVRPPRLPRPRPRPWHPPRP,-0.0956
3,RRIRIRPPRLPRPRPRPTFCPRP,-0.02
4,RRIRKRPPRLPRPRPRPEQYPRP,0.104
5,RRIRWRPPRLPRPRPRPNSHPRP,-0.16
6,RRIRARPPRLPRPRPRPFVRPRP,-0.0552
7,RRIRIRPPRLPRPRPRPSPCPRP,-0.761
8,RRIRPRPPRLPRPRPRPMCRPRP,-0.263
9,RRIRTRPPRLPRPRPRPDAYPRP,-0.134
10,RRIRMRPPRLPRPRPRPQESPRP,0.55
11,RRIRMRPPRLPRPRPRPNTDPRP,-0.196
12,RRIRVRPPRLPRPRPRPQSEPRP,-0.107
13,RRIRRRPPRLPRPRPRPKNRPRP,-0.0177
14,RRIRRRPPRLPRPRPRPTSAPRP,0.274
15,RRIRRRPPRLPRPRPRPLVMPRP,0.164
16,RRIRRRPPRLPRPRPRPAMKPRP,0.373
17,RRIRIRPPRLPRPRPRPFMWPRP,-0.792
18,RRIRERPPRLPRPRPRPQDTPRP,2.38
19,RRIRPRPPRLPRPRPRPKLTPRP,0.421
20,RRIRLRPPRLPRPRPRPTMAPRP,-0.283
21,RRIRPRPPRLPRPRPRPTIEPRP,-0.0748
22,RRIRERPPRLPRPRPRPLEEPRP,0.239
23,RRIRARPPRLPRPRPRPNMDPRP,-0.00909
24,RRIRIRPPRLPRPRPRPGGDPRP,0.0406
25,RRIRQRPPRLPRPRPRPGSWPRP,0.298

row,Sequence,shrunken log2 fold change
1,RRIRARPPRLPRPRPRPTSLPRP,0.225
2,RRIRTRPPRLPRPRPRPTLEPRP,0.0319
3,RRIRIRPPRLPRPRPRPIQNPRP,-0.225
4,RRIRSRPPRLPRPRPRPPRTPRP,0.619
5,RRIRGRPPRLPRPRPRPTYEPRP,0.318
6,RRIRGRPPRLPRPRPRPANWPRP,0.731
7,RRIRRRPPRLPRPRPRPQNTPRP,-0.218
8,RRIRTRPPRLPRPRPRPPPRPRP,1.36
9,RRIRTRPPRLPRPRPRPNWDPRP,0.00303
10,RRIRQRPPRLPRPRPRPGELPRP,-0.091
11,RRIRCRPPRLPRPRPRPRICPRP,0.183
12,RRIRTRPPRLPRPRPRPSWRPRP,0.153
13,RRIRIRPPRLPRPRPRPNSYPRP,-0.084
14,RRIRGRPPRLPRPRPRPTWNPRP,0.359
15,RRIRVRPPRLPRPRPRPNWRPRP,0.4
16,RRIRIRPPRLPRPRPRPHGDPRP,-0.125
17,RRIRARPPRLPRPRPRPTVFPRP,0.0832
18,RRIRYRPPRLPRPRPRPYQKPRP,-0.0257
19,RRIRFRPPRLPRPRPRPETKPRP,-0.0125
20,RRIRSRPPRLPRPRPRPSQEPRP,-0.26
21,RRIRDRPPRLPRPRPRPLYWPRP,-0.112
22,RRIRMRPPRLPRPRPRPRCNPRP,0.105
23,RRIRERPPRLPRPRPRPKAWPRP,0.0873
24,RRIRHRPPRLPRPRPRPAADPRP,0.274
25,RRIRCRPPRLPRPRPRPSDDPRP,0.334
